From publication PMC5071832, “Molecular basis for catalysis and substrate-mediated cellular stabilization of human tryptophan 2,3-dioxygenase” (Scientific Reports, 2016)

Target: the molecule itself
Assay: crystal structure; ferrous hTDO (45 mg/ml) with 10 mM L-Trp, under-oil microbatch, anaerobic, 18 °C; precipitant 50 mM sodium citrate pH 5.6, 5% PEG 3350, 2% Tacsimate pH 5; one crystal mounted anaerobically, one soaked overnight in O2-saturated solution; four subunits (A-D) form the tetramer

B1: human tryptophan 2,3-dioxygenase (enzyme)
chain: LPVEGSEEDKSQTGVNRASKGGLIYGNYLHLEKVLNAQELQSETKGNKIHDEHLFIITHQAYELWFKQILWELDSVREIFQNGHVRDERNMLKVVSRMHRVSVILKLLVQQFSILETMTALDFNDFREYLSPASGFQSLQFRLLENKIGVLQNMRVPYNRRHYRDNFKGEENELLLKSEQEKTLLELVEAWLERTPGLEPHGFNFWGKLEKNITRGLEEEFIRIQAKEESEEKEEQVAEFQKQKEVLLSLFDEKRHEHLLSKGERRLSYRALQGALMIYFYREEPRFQVPFQLLTSLMDIDSLMTKWRYNHVCMVHRMLGSKAGTGGSSGYHYLRSTVSDRYKVFVDLFNLSTYLIPRHWIPKMNPTIHKFL
notes: tryptophan 2,3-dioxygenase, human; Heme protein, crystallized in the ferrous state with L-Trp (and O2 or NFK); The construct lacks the N-terminal residues up to at least K17, and K37 lies in a disordered region; also called hTDO; TDO; source: recombinant, purified; oxidized with potassium ferricyanide, G25 column
stoichiometry N: 4
